Results published in article PMC6451107, “Structural insights reveal the specific recognition of roX RNA by the dsRNA-binding domains of the RNA helicase MLE and its indispensable role in dosage compensation in Drosophila”.

Legend:
Assay in all cases: fluorescence polarization; FP: 80 nM 3'-FAM RNA stock mixed 1:1 with protein, buffer D (composition not in material), 15 min, 20 C; EMSA: 1200 nM RNA stock mixed 1:1 with protein, buffer
[1] = molecular target: MLE dsRBD1 (Drosophila, UniProt P24785 1-87); details: protein: recombinant; tags: SUMO tag removed by ULP1; label: 3'-FAM; hairpin, 13 nt loop (C135-C147)
[2] = molecular target: MLE dsRBD2 (Drosophila, UniProt P24785 152-264); details: protein: recombinant; tags: SUMO tag removed by ULP1; label: 3'-FAM; hairpin, 13 nt loop (C135-C147)
[3] = molecular target: MLE dsRBD1+2 K4E/S5A (Drosophila, UniProt P24785 1-264, K4E;S5A); details: protein: recombinant; tags: SUMO tag removed by ULP1; label: 3'-FAM; hairpin, 13 nt loop (C135-C147)
[4] = molecular target: MLE dsRBD1+2 N175A (Drosophila, UniProt P24785 1-264, N175A); details: protein: recombinant; tags: SUMO tag removed by ULP1; label: 3'-FAM; hairpin, 13 nt loop (C135-C147)
[5] = molecular target: MLE dsRBD1+2 S5A (Drosophila, UniProt P24785 1-264, S5A); details: protein: recombinant; tags: SUMO tag removed by ULP1; label: 3'-FAM; hairpin, 13 nt loop (C135-C147)
[6] = molecular target: MLE dsRBD1+2 K171E/N175A (Drosophila, UniProt P24785 1-264, K171E;N175A); details: protein: recombinant; tags: SUMO tag removed by ULP1; label: 3'-FAM; hairpin, 13 nt loop (C135-C147)
[7] = molecular target: MLE dsRBD1+2 K4A (Drosophila, UniProt P24785 1-264, K4A); details: protein: recombinant; tags: SUMO tag removed by ULP1; label: 3'-FAM; hairpin, 13 nt loop (C135-C147)
[8] = molecular target: MLE dsRBD1+2 E195A (Drosophila, UniProt P24785 1-264, E195A); details: protein: recombinant; tags: SUMO tag removed by ULP1; label: 3'-FAM; hairpin, 13 nt loop (C135-C147)
[9] = molecular target: MLE dsRBD1+2 K4A/S5A (Drosophila, UniProt P24785 1-264, K4A;S5A); details: protein: recombinant; tags: SUMO tag removed by ULP1; label: 3'-FAM; hairpin, 13 nt loop (C135-C147)
[10] = molecular target: MLE dsRBD1+2 K229A (Drosophila, UniProt P24785 1-264, K229A); details: protein: recombinant; tags: SUMO tag removed by ULP1; label: 3'-FAM; hairpin, 13 nt loop (C135-C147)
[11] = molecular target: MLE dsRBD1+2 N52A/K53A/K54A (Drosophila, UniProt P24785 1-264, N52A;K53A;K54A); details: protein: recombinant; tags: SUMO tag removed by ULP1; label: 3'-FAM; hairpin, 13 nt loop (C135-C147)
[12] = molecular target: MLE dsRBD1+2 N52A/K53E/K54E/K58E (Drosophila, UniProt P24785 1-264, N52A;K53E;K54E;K58E); details: protein: recombinant; tags: SUMO tag removed by ULP1; label: 3'-FAM; hairpin, 13 nt loop (C135-C147)
[13] = molecular target: MLE dsRBD1+2 N223A/K224A/K225A (Drosophila, UniProt P24785 1-264, N223A;K224A;K225A); details: protein: recombinant; tags: SUMO tag removed by ULP1; label: 3'-FAM; hairpin, 13 nt loop (C135-C147)
[14] = molecular target: MLE dsRBD1+2 E172A (Drosophila, UniProt P24785 1-264, E172A); details: protein: recombinant; tags: SUMO tag removed by ULP1; label: 3'-FAM; hairpin, 13 nt loop (C135-C147)
[15] = molecular target: MLE dsRBD1+2 K4E (Drosophila, UniProt P24785 1-264, K4E); details: protein: recombinant; tags: SUMO tag removed by ULP1; label: 3'-FAM; hairpin, 13 nt loop (C135-C147)
[16] = molecular target: MLE dsRBD1+2 N223A/K224E/K225E/K229E (Drosophila, UniProt P24785 1-264, N223A;K224E;K225E;K229E); details: protein: recombinant; tags: SUMO tag removed by ULP1; label: 3'-FAM; hairpin, 13 nt loop (C135-C147)
[17] = molecular target: MLE dsRBD1+2 K58A (Drosophila, UniProt P24785 1-264, K58A); details: protein: recombinant; tags: SUMO tag removed by ULP1; label: 3'-FAM; hairpin, 13 nt loop (C135-C147)
[18] = molecular target: MLE dsRBD1+2 K171A (Drosophila, UniProt P24785 1-264, K171A); details: protein: recombinant; tags: SUMO tag removed by ULP1; label: 3'-FAM; hairpin, 13 nt loop (C135-C147)
[19] = molecular target: MLE dsRBD1+2 H196E (Drosophila, UniProt P24785 1-264, H196E); details: protein: recombinant; tags: SUMO tag removed by ULP1; label: 3'-FAM; hairpin, 13 nt loop (C135-C147)
[20] = molecular target: MLE dsRBD1+2 N29A (Drosophila, UniProt P24785 1-264, N29A); details: protein: recombinant; tags: SUMO tag removed by ULP1; label: 3'-FAM; hairpin, 13 nt loop (C135-C147)
[21] = molecular target: MLE dsRBD1+2 K171E (Drosophila, UniProt P24785 1-264, K171E); details: protein: recombinant; tags: SUMO tag removed by ULP1; label: 3'-FAM; hairpin, 13 nt loop (C135-C147)
[22] = molecular target: MLE dsRBD1+2 WT (Drosophila, UniProt P24785 1-264); details: protein: recombinant, tags: SUMO tag (N-terminal, with Ni-NTA purification) removed by ULP1, label: 3'-FAM, hairpin
[23] = molecular target: MLE dsRBD1+2 H196A (Drosophila, UniProt P24785 1-264, H196A); details: protein: recombinant; tags: SUMO tag removed by ULP1; label: 3'-FAM; hairpin, 13 nt loop (C135-C147)

B1: R2H1 55mer (FAM) (structured_RNA)
RNA: GCUUUAGAGAUCGUUUCGAAUCACAUUGAUAAUCGUUCGAAACGUUCUCCGAAGC
binding signal [1]: ~44 fold weaker than dsRBD1+2 | binding signal [2]: ~4.5 fold weaker than dsRBD1+2 | Kd [3]: 8.05 ± 0.34 µM | Kd [4]: 1.31 ± 0.26 µM | Kd [5]: 1.8 ± 0.24 µM | Kd [6]: 10.3 ± 1.14 µM | Kd [7]: 4.18 ± 0.27 µM | Kd [8]: 0.15 ± 0.03 µM | Kd [9]: 4.49 ± 0.54 µM | Kd [10]: 0.88 ± 0.18 µM | Kd [11]: 7.7 ± 0.36 µM | Kd [12]: 12.5 ± 1.51 µM | Kd [13]: 18.9 ± 1.45 µM | Kd [14]: 0.18 ± 0.04 µM | Kd [15]: 6.55 ± 0.56 µM | Kd [16]: 60.1 ± 6.55 µM | Kd [17]: 2.38 ± 0.13 µM | Kd [18]: 4.58 ± 0.68 µM | Kd [19]: 7.24 ± 0.65 µM | Kd [20]: 0.43 ± 0.07 µM | Kd [21]: 8.21 ± 0.26 µM | Kd ([22]; 13 nt loop (C135-C147)): 0.2 ± 0.03 µM | Kd [23]: 3.02 ± 0.2 µM

B2: R2H1 U134C/C135G (structured_RNA)
RNA: GCUUUAGAGAUCGUUUCGAACGACAUUGAUAAUCGUUCGAAACGUUCUCCGAAGC
Kd [22]: 0.43 ± 0.05 µM

B3: R2H1 U124A (structured_RNA)
RNA: GCUUUAGAGAACGUUUCGAAUCACAUUGAUAAUCGUUCGAAACGUUCUCCGAAGC
Kd [22]: 1.03 ± 0.12 µM

B4: R2H1 U118C/A119G (structured_RNA)
RNA: GCUUCGGAGAUCGUUUCGAAUCACAUUGAUAAUCGUUCGAAACGUUCUCCGAAGC
Kd [22]: 0.42 ± 0.06 µM
